# Experimental data reported in US20230039694A1, “H[…] REDUCTASE AND USES THEREOF” (Southwest University, priority 2019, published 2023).
# B1: HAR: Hyoscyamine aldehyde reductase from Atropa belladonna, amino acid sequence SEQ ID NO. 4, encoded by SEQ ID NO. 3 (protein, listed as Atropa belladonna)
# chain: MDSSGVLSPFTFSRRATGEEDVRLKVLYCGICHSDLGCIKNEWGWCSYPLVPGHEIVGIATEVGSKVTKFKVGDRVGVGCMVGSCGTCQNCTQNQESYCPEVIMTCASAYPDGTPTYGGFSNQMVANEKFVIRIPNSLPLDAAAPLLCAGSTVYSAMKFYGLCSQGLHLGVVGLGGLGHVAVKFAKAFGMKVTVISTSLGKKEEAINQLGADSFLINTDTEQMQGAMEVMDGIIDTVSALHPIEPLLGLLKSHQGKLIIVGLPNKQPELPVFSLINGRKMIGGSAVGGVKETQEMIDFAAEHNITADIEIVPMDYVNTAMERLEKGDVKFRFVIDVENTLVAAQT
# Experiments:
# [1] = Verification on enzyme activity of HAR: hyoscyamine aldehyde reduction reaction, product identified by high-resolution mass spectrometry; assay type: biochemical, Atropa belladonna; details: phosphate buffer pH 6.4, 0.2 mM NADPH-4Na, 1 mM hyoscyamine aldehyde, 30 μg HAR protein, 1 h at 37.5° C.
# Procedure: The constructed pET28a-HAR plasmid was converted to a prokaryotic expression stain BL21, and a positive clone was screened with PCR to obtain prokaryotic expression engineering bacteria BL21-pET28a-HAR. 100 μL of BL21-pET28a-HAR bacterial liquid was inoculated to a 30 mL of LB liquid medium containing 100 mg/L kanamycin for overnight culture at 37° C. and 200 rpm. Then, a product was respectively inoculated to 400 mL of LB liquid medium according to a ratio of 1 to 50 for activated culture at 37° C. and 200 rpm, and when OD600 was about 0.6, IPTG was added until a final concentration reached 1 mM. Culture was continued for 6 h at 37° C. and 200 rpm. The harvested bacterial liquid was subjected to centrifugation at 8000 rpm, and a supernatant was removed. Then precipitate bacteria were resuspended with a phosphate buffer, subjected to ultrasonication and then purified with a Ni-NTA filler from GE Company to obtain an HAR protein.
# A hyoscyamine aldehyde reduction reaction system catalyzed by the HAR was as follows: a phosphate buffer (pH 6.4), 0.2 mM NADPH-4Na, 1 mM hyoscyamine aldehyde and 30 μg of HAR protein were incubated for 1 h at 37.5° C., and a reaction product was identified using a high-resolution mass spectrometer. […]
# [2] = system: Atropa belladonna hairy roots; experiment: Content of hyoscyamine in transgenic Atropa belladonna hairy roots with HAR over-expression (HPLC); assay type: cell-based
# Source text: In order to study the effect of an HAR gene on tropane alkaloids in Atropa belladonna, a pericycle-specific high-expression vector PMT promoter::HAR was constructed, and an original plasmid was pBI121. Firstly, a 35S promoter on the original plasmid pBI121 was substituted with an AbPMT promoter by using digestion sites HindIII and Xba I; and the AbPMT promoter was subjected to PCR amplification with Atropa belladonna cDNA as a template and sequences as shown in SEQ ID NO. 7 and SEQ ID NO. 8 as primers. Then a GUS gene on the original plasmid was substituted with the HAR gene by using digestion sites BamHI and SacI; and the HAR gene was subjected to PCR amplification with Atropa belladonna cDNA as a template and sequences as shown in SEQ ID NO. 9 and SEQ ID NO. 10 as primers to obtain an HAR plant over-expression vector PMT promoter:: HAR. The primer sequences used were as follows: […]
# The hairy roots were harvested after being subjected to shaking culture for 30 d in an MS liquid medium, and a material was freeze-dried to a constant weight in a freeze dryer. […] The alkaloids were dissolved with 1 mL of liquid chromatography grade methanol; the solution was filtered with a filter membrane of 0.22 μm; the content of the alkaloids was determined with HPLC; and a result was an average of three repeated experiments, where an error bar indicated a standard deviation. […]
molecule,measurement,setting,value
B1,product of the hyoscyamine aldehyde reduction reaction catalyzed by the HAR,[1],a product of the hyoscyamine aldehyde reduction reaction catalyzed by the HAR was hyoscyamine
same,content of hyoscyamine relative to non-transgenic Atropa belladonna hairy roots,"[2]; AbHAR over-expression hairy roots versus non-transgenic hairy roots, same period",1.83-2.58 times
same,average content of hyoscyamine in hairy roots,"[2]; AbHAR over-expression hairy roots, 30 d shaking culture in MS liquid medium, ordinary hairy roots 2.32 mg/g DW",4.24-5.98 mg/g DW
